According to PMC10786891, “Massively parallel profiling of RNA-targeting CRISPR-Cas13d”:

T1: EsCas13d, nuclease-dead (Eubacterium siraeum, UniProt B0MS50, R295A;H300A;R849A;H854A)
T1 sequence: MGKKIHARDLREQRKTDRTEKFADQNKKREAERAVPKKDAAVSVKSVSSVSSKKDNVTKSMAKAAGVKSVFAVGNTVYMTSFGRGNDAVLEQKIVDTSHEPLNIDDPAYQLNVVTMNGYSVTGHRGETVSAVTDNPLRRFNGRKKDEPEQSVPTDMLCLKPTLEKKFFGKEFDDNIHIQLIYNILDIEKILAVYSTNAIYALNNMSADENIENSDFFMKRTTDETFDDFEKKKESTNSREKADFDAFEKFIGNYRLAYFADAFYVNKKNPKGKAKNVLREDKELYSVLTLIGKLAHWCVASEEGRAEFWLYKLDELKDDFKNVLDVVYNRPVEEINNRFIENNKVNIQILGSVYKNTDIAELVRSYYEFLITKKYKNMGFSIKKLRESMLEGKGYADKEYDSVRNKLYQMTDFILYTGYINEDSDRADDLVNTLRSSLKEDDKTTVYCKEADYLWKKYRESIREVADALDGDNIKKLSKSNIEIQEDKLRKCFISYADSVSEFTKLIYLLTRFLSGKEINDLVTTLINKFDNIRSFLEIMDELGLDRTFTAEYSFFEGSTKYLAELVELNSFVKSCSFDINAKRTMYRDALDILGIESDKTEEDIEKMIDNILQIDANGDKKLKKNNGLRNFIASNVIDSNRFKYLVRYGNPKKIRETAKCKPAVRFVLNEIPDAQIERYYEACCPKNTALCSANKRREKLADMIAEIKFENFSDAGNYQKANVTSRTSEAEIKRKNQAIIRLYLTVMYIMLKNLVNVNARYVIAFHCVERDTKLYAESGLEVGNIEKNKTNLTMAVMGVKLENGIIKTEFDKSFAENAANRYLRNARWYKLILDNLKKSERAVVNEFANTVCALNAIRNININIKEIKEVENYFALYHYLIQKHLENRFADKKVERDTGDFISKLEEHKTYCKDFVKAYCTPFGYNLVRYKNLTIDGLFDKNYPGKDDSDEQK


Target: T1, EsCas13d, nuclease-dead
Assay: crRNA (strand 1, pre-loaded); Mg2+; 40 mM Tris-HCl pH 7.5, 150 mM NaCl, 6 mM MgCl2, 1 mM DTT, 0.1% Tween-20, 0.2 mg/ml BSA; 25 C; 10 min per concentration, then washed
Settings: tags: His6-TwinStrep-SUMO cleaved; N-terminal SNAP kept (SNAP-Surface 488); label: 3' end held by stalled T7 RNA polymerase

| Binder | Kd |
| --- | --- |
| target 1 MT 5'PFS UCA 3'PFS ACG (mixed) RNA 1: CACCCGUGCAAAAAUGCAGGGGUCUAAAACUGAGCGGAUAACCUCUCUAUGG RNA 2: GGGAAUGGAUCCACAUCUACGAAUUCUCACCAUAGAGAGGUUAUCCGCUCAACGAGAUCGGAAGAGCACACGU | ~65 nM |
| target 1 MT 5'PFS AGG 3'PFS CGG (mixed) RNA 1: CACCCGUGCAAAAAUGCAGGGGUCUAAAACUGAGCGGAUAACCUCUCUAUGG RNA 2: GGGAAUGGAUCCACAUCUACGAAUUCAGGCCAUAGAGAGGUUAUCCGCUCACGGAGAUCGGAAGAGCACACGU | 41 ± 11.5 nM |
| target 1 MT 5'PFS UGA 3'PFS ACG (mixed) RNA 1: CACCCGUGCAAAAAUGCAGGGGUCUAAAACUGAGCGGAUAACCUCUCUAUGG RNA 2: GGGAAUGGAUCCACAUCUACGAAUUCUGACCAUAGAGAGGUUAUCCGCUCAACGAGAUCGGAAGAGCACACGU | 110 ± 50 nM |
| target 1 MT 5'PFS UUC 3'PFS CCU (mixed) RNA 1: CACCCGUGCAAAAAUGCAGGGGUCUAAAACUGAGCGGAUAACCUCUCUAUGG RNA 2: GGGAAUGGAUCCACAUCUACGAAUUCUUCCCAUAGAGAGGUUAUCCGCUCACCUAGAUCGGAAGAGCACACGU | 66 ± 27 nM |
| target 1 MT 5'PFS GGC 3'PFS ACG (mixed) RNA 1: CACCCGUGCAAAAAUGCAGGGGUCUAAAACUGAGCGGAUAACCUCUCUAUGG RNA 2: GGGAAUGGAUCCACAUCUACGAAUUCGGCCCAUAGAGAGGUUAUCCGCUCAACGAGAUCGGAAGAGCACACGU | 13.5 ± 2.85 nM |
| target 1 MT 5'PFS GAG 3'PFS UAG (mixed) RNA 1: CACCCGUGCAAAAAUGCAGGGGUCUAAAACUGAGCGGAUAACCUCUCUAUGG RNA 2: GGGAAUGGAUCCACAUCUACGAAUUCGAGCCAUAGAGAGGUUAUCCGCUCAUAGAGAUCGGAAGAGCACACGU | 46.5 ± 15.5 nM |
| target 1 MT 5'PFS GAG 3'PFS UAA (mixed) RNA 1: CACCCGUGCAAAAAUGCAGGGGUCUAAAACUGAGCGGAUAACCUCUCUAUGG RNA 2: GGGAAUGGAUCCACAUCUACGAAUUCGAGCCAUAGAGAGGUUAUCCGCUCAUAAAGAUCGGAAGAGCACACGU | 28.5 ± 8 nM |
| target 1 MT 5'PFS AUG 3'PFS UGA (mixed) RNA 1: CACCCGUGCAAAAAUGCAGGGGUCUAAAACUGAGCGGAUAACCUCUCUAUGG RNA 2: GGGAAUGGAUCCACAUCUACGAAUUCAUGCCAUAGAGAGGUUAUCCGCUCAUGAAGAUCGGAAGAGCACACGU | 52 ± 19.5 nM |
| target 1 MT 5'PFS GAG 3'PFS UAC (mixed) RNA 1: CACCCGUGCAAAAAUGCAGGGGUCUAAAACUGAGCGGAUAACCUCUCUAUGG RNA 2: GGGAAUGGAUCCACAUCUACGAAUUCGAGCCAUAGAGAGGUUAUCCGCUCAUACAGAUCGGAAGAGCACACGU | ~60 nM |
| target 1 MT 5'PFS ACC 3'PFS UGU (mixed) RNA 1: CACCCGUGCAAAAAUGCAGGGGUCUAAAACUGAGCGGAUAACCUCUCUAUGG RNA 2: GGGAAUGGAUCCACAUCUACGAAUUCACCCCAUAGAGAGGUUAUCCGCUCAUGUAGAUCGGAAGAGCACACGU | ~19 nM |
| target 1 MT 5'PFS GCA 3'PFS ACC (mixed) RNA 1: CACCCGUGCAAAAAUGCAGGGGUCUAAAACUGAGCGGAUAACCUCUCUAUGG RNA 2: GGGAAUGGAUCCACAUCUACGAAUUCGCACCAUAGAGAGGUUAUCCGCUCAACCAGAUCGGAAGAGCACACGU | ~32 nM |
| target 1 MT 5'PFS CAG 3'PFS UUG (mixed) RNA 1: CACCCGUGCAAAAAUGCAGGGGUCUAAAACUGAGCGGAUAACCUCUCUAUGG RNA 2: GGGAAUGGAUCCACAUCUACGAAUUCCAGCCAUAGAGAGGUUAUCCGCUCAUUGAGAUCGGAAGAGCACACGU | 19.7 ± 3.55 nM |
| target 1 MT 5'PFS GCU 3'PFS AUU (mixed) RNA 1: CACCCGUGCAAAAAUGCAGGGGUCUAAAACUGAGCGGAUAACCUCUCUAUGG RNA 2: GGGAAUGGAUCCACAUCUACGAAUUCGCUCCAUAGAGAGGUUAUCCGCUCAAUUAGAUCGGAAGAGCACACGU | 76 ± 31 nM |
| target 1 MT 5'PFS CUG 3'PFS AAG (mixed) RNA 1: CACCCGUGCAAAAAUGCAGGGGUCUAAAACUGAGCGGAUAACCUCUCUAUGG RNA 2: GGGAAUGGAUCCACAUCUACGAAUUCCUGCCAUAGAGAGGUUAUCCGCUCAAAGAGAUCGGAAGAGCACACGU | 12.4 ± 3.4 nM |
| target 1 MT 5'PFS AGG 3'PFS CGC (mixed) RNA 1: CACCCGUGCAAAAAUGCAGGGGUCUAAAACUGAGCGGAUAACCUCUCUAUGG RNA 2: GGGAAUGGAUCCACAUCUACGAAUUCAGGCCAUAGAGAGGUUAUCCGCUCACGCAGAUCGGAAGAGCACACGU | 44 ± 19 nM |
| target 1 MT 5'PFS UCA 3'PFS ACU (mixed) RNA 1: CACCCGUGCAAAAAUGCAGGGGUCUAAAACUGAGCGGAUAACCUCUCUAUGG RNA 2: GGGAAUGGAUCCACAUCUACGAAUUCUCACCAUAGAGAGGUUAUCCGCUCAACUAGAUCGGAAGAGCACACGU | 14 ± 4.5 nM |
| target 1 MT 5'PFS GCA 3'PFS CGU (mixed) RNA 1: CACCCGUGCAAAAAUGCAGGGGUCUAAAACUGAGCGGAUAACCUCUCUAUGG RNA 2: GGGAAUGGAUCCACAUCUACGAAUUCGCACCAUAGAGAGGUUAUCCGCUCACGUAGAUCGGAAGAGCACACGU | 11.4 ± 2.2 nM |
| target 1 MT 5'PFS GCA 3'PFS CGC (mixed) RNA 1: CACCCGUGCAAAAAUGCAGGGGUCUAAAACUGAGCGGAUAACCUCUCUAUGG RNA 2: GGGAAUGGAUCCACAUCUACGAAUUCGCACCAUAGAGAGGUUAUCCGCUCACGCAGAUCGGAAGAGCACACGU | 71 ± 27 nM |
| target 1 MT 5'PFS CUG 3'PFS CCG (mixed) RNA 1: CACCCGUGCAAAAAUGCAGGGGUCUAAAACUGAGCGGAUAACCUCUCUAUGG RNA 2: GGGAAUGGAUCCACAUCUACGAAUUCCUGCCAUAGAGAGGUUAUCCGCUCACCGAGAUCGGAAGAGCACACGU | 3.05 ± 0.55 nM |
| target 1 MT 5'PFS GUU 3'PFS UUU (mixed) RNA 1: CACCCGUGCAAAAAUGCAGGGGUCUAAAACUGAGCGGAUAACCUCUCUAUGG RNA 2: GGGAAUGGAUCCACAUCUACGAAUUCGUUCCAUAGAGAGGUUAUCCGCUCAUUUAGAUCGGAAGAGCACACGU | 8.95 ± 0.95 nM |
| target 1 MT 5'PFS GAA 3'PFS CCU (mixed) RNA 1: CACCCGUGCAAAAAUGCAGGGGUCUAAAACUGAGCGGAUAACCUCUCUAUGG RNA 2: GGGAAUGGAUCCACAUCUACGAAUUCGAACCAUAGAGAGGUUAUCCGCUCACCUAGAUCGGAAGAGCACACGU | ~21 nM |
| target 1 MT 5'PFS GAA 3'PFS CCG (mixed) RNA 1: CACCCGUGCAAAAAUGCAGGGGUCUAAAACUGAGCGGAUAACCUCUCUAUGG RNA 2: GGGAAUGGAUCCACAUCUACGAAUUCGAACCAUAGAGAGGUUAUCCGCUCACCGAGAUCGGAAGAGCACACGU | 21 ± 5.5 nM |
| target 1 MT 5'PFS AGG 3'PFS CGU (mixed) RNA 1: CACCCGUGCAAAAAUGCAGGGGUCUAAAACUGAGCGGAUAACCUCUCUAUGG RNA 2: GGGAAUGGAUCCACAUCUACGAAUUCAGGCCAUAGAGAGGUUAUCCGCUCACGUAGAUCGGAAGAGCACACGU | ~90 nM |
| target 1 MT 5'PFS GCU 3'PFS AUA (mixed) RNA 1: CACCCGUGCAAAAAUGCAGGGGUCUAAAACUGAGCGGAUAACCUCUCUAUGG RNA 2: GGGAAUGGAUCCACAUCUACGAAUUCGCUCCAUAGAGAGGUUAUCCGCUCAAUAAGAUCGGAAGAGCACACGU | 57 ± 16 nM |
| target 1 C2U,G12C (mixed) RNA 1: CACCCGUGCAAAAAUGCAGGGGUCUAAAACUGAGCGGAUAACCUCUCUAUGG RNA 2: GGGAAUGGAUCCACAUCUACGAAUUCGUACCAUAGAGAGCUUAUCCGCUUACCGAGAUCGGAAGAGCACACGU | 7.1 ± 0.5 nM |
| target 1 C4A,A9U (mixed) RNA 1: CACCCGUGCAAAAAUGCAGGGGUCUAAAACUGAGCGGAUAACCUCUCUAUGG RNA 2: GGGAAUGGAUCCACAUCUACGAAUUCGUACCAUAGAGAGGUUUUCCGAUCACCGAGAUCGGAAGAGCACACGU | 4.45 ± 0.25 nM |
| target 1 MT 5'PFS CGC 3'PFS CCG (mixed) RNA 1: CACCCGUGCAAAAAUGCAGGGGUCUAAAACUGAGCGGAUAACCUCUCUAUGG RNA 2: GGGAAUGGAUCCACAUCUACGAAUUCCGCCCAUAGAGAGGUUAUCCGCUCACCGAGAUCGGAAGAGCACACGU | 19 ± 7 nM |
| target 1 MT 5'PFS GGC 3'PFS ACA (mixed) RNA 1: CACCCGUGCAAAAAUGCAGGGGUCUAAAACUGAGCGGAUAACCUCUCUAUGG RNA 2: GGGAAUGGAUCCACAUCUACGAAUUCGGCCCAUAGAGAGGUUAUCCGCUCAACAAGAUCGGAAGAGCACACGU | 20 ± 10 nM |
